Results taken from PMC2661963, “The Active Site of a Carbohydrate Esterase Displays Divergent Catalytic and Noncatalytic Binding Functions” (PLoS Biology, 2009).

B1: CjCE2A (Cellvibrio japonicus Ueda107) (protein)
chain: NTQSLMSSTHTIAASDPHIQVMGRTHINDDASLTFGYPGVSLSTIVAGSRLTAEMQSSNGNSWIDVIIDNHPPTSIKLDAQQQTVELFHFPNSGEHRVEIIHRSENWHGQVTLKQLTLTGTQFLPAPVLPQRKILVLGDSVTCGEAIDRVAGEDKNTRWWNARESYGMLTAKALDAQVQLVCWGGRGLIRSWNGKTDDANLPDFYQFTLGDTGQAPQWDHHRYQPDLIISAIGTNDFSPGIPDRATYINTYTRFVRTLLDNHPQATIVLTEGAILNGDKKAALVSYIGETRQQLHSNRVFYASSSHHPGDNSDAHPTKDQHAAMARELTPQLRQIMDW
notes: mature form (signal peptide removed), C-terminal His6 tag, pET22b, E. coli BL21; catalytic triad Ser-160, His-335, Asp-333; Trp-127, Trp-212
B2: CtCE2 (Acetivibrio thermocellus ATCC 27405; D789A) (protein)
chain: SQTPDEDNPGILYNGRFDFSDPNGPKCAWSGSNVELNFYGTEASVTIKSGGENWFQAIVDGNPLPPFSVNATTSTVKLVSGLAEGAHHLVLWKRTEASLGEVQFLGFDFGSGKLLAAPKPLERKIEFIGDSITCAYGNEGTSKEQSFTPKNENSYMSYAAITARNLNASANMIAWSGIGLTMNYGGAPGPLIMDRYPYTLPYSGVRWDFSKYVPQVVVINLGTNDFSTSFADKTKFVTAYKNLISEVRRNYPDAHIFCCVGPMLWGTGLDLCRSYVTEVVNDCNRSGDLKVYFVEFPQQDGSTGYGEAWHPSIATHQLMAERLTAEIKNKLGW
notes: C-terminal CE2 esterase module only, residues 482-814 of the full-length enzyme, C-terminal His6 tag, pET22b, E. coli BL21
B3: CtCE2 (Acetivibrio thermocellus ATCC 27405; D789N) (protein)
chain: SQTPDEDNPGILYNGRFDFSDPNGPKCAWSGSNVELNFYGTEASVTIKSGGENWFQAIVDGNPLPPFSVNATTSTVKLVSGLAEGAHHLVLWKRTEASLGEVQFLGFDFGSGKLLAAPKPLERKIEFIGDSITCAYGNEGTSKEQSFTPKNENSYMSYAAITARNLNASANMIAWSGIGLTMNYGGAPGPLIMDRYPYTLPYSGVRWDFSKYVPQVVVINLGTNDFSTSFADKTKFVTAYKNLISEVRRNYPDAHIFCCVGPMLWGTGLDLCRSYVTEVVNDCNRSGDLKVYFVEFPQQDGSTGYGENWHPSIATHQLMAERLTAEIKNKLGW
notes: as for B2
B4: CtCE2 (Acetivibrio thermocellus ATCC 27405) (protein)
chain: SQTPDEDNPGILYNGRFDFSDPNGPKCAWSGSNVELNFYGTEASVTIKSGGENWFQAIVDGNPLPPFSVNATTSTVKLVSGLAEGAHHLVLWKRTEASLGEVQFLGFDFGSGKLLAAPKPLERKIEFIGDSITCAYGNEGTSKEQSFTPKNENSYMSYAAITARNLNASANMIAWSGIGLTMNYGGAPGPLIMDRYPYTLPYSGVRWDFSKYVPQVVVINLGTNDFSTSFADKTKFVTAYKNLISEVRRNYPDAHIFCCVGPMLWGTGLDLCRSYVTEVVNDCNRSGDLKVYFVEFPQQDGSTGYGEDWHPSIATHQLMAERLTAEIKNKLGW
notes: as for B2
B5: CjCE2B (Cellvibrio japonicus Ueda107) (protein)
chain: ADSTKPLPLHIGGRVLVESPANQPVSYTYSWPAVYFETAFKGQSLTLKFDDDQNIFRLIVDDKAPVVINKPGKVDYPVESLAPGKHRVRLEKLTETQSTSGRFLGFYTDPSAKPLALPKRKRQIEFIGDSFTVGYGNTSPSRECTDEELFKTTNSQMAFGPLTAKAFDADYQINASSGFGIVRNYNGTSPDKSLLSLYPYTLNNPDQLYHNKHWKPQVIVIGLGTNDFSTALNDNERWKTREALHADYVANYVKFVKQLHSNNARAQFILMNSDQSNGEIAEQVGKVVAQLKGGGLHQVEQIVFKGLDYSGCHWHPSANDDQLLANLLITHLQQKKGIW
notes: mature form (signal peptide removed), C-terminal His6 tag, pET22b, E. coli BL21; model ordered 26-361; Cys-333, Trp-335, Tyr-206

How the values were obtained:
CtCE2 [1] = biological target: T1, CtCE2 (Acetivibrio thermocellus, UniProt P10477); test: isothermal titration calorimetry; format: binding; settings: 50 mM HEPES-Na, 25 °C; pH 8.0 with 300 mM NaCl (Methods; Figure 5 legend says pH 7.0); binds across esterase active site
T1 construct: gene celE; C-terminal CE2 esterase module only, residues 482-814 of the full-length enzyme, C-terminal His6 tag, pET22b, E. coli BL21
Source text: (§1) isothermal titration calorimetry on CtCE2

CtCE2 [2] = biological target: T1, CtCE2; test: inhibition of 4-nitrophenyl acetate hydrolysis; format: biochemical; settings: substrate 4-nitrophenyl acetate; noncompetitive; 37 °C
Source text: inhibition of 4-nitrophenyl acetate hydrolysis on CtCE2

CtCE2 [3] = biological target: T2, CtCE2 (Acetivibrio thermocellus, UniProt P10477, H791A); test: isothermal titration calorimetry; format: binding; settings: 50 mM HEPES-Na, 25 °C; pH 8.0 with 300 mM NaCl (Methods; Figure 5 legend says pH 7.0); binds across esterase active site
T2 construct: gene celE; C-terminal CE2 esterase module only, residues 482-814 of the full-length enzyme, C-terminal His6 tag, pET22b, E. coli BL21
Source text: as §1

CtCE2 [4] = biological target: T3, CtCE2 (Acetivibrio thermocellus, UniProt P10477, S612A); test: isothermal titration calorimetry; format: binding; settings: 50 mM HEPES-Na, 25 °C; pH 8.0 with 300 mM NaCl (Methods; Figure 5 legend says pH 7.0); binds across esterase active site
T3 construct: gene celE; C-terminal CE2 esterase module only, residues 482-814 of the full-length enzyme, C-terminal His6 tag, pET22b, E. coli BL21
Source text: as §1

CtCE2 [5] = biological target: T4, CtCE2 (Acetivibrio thermocellus, UniProt P10477, W746A); test: isothermal titration calorimetry; format: binding; settings: 50 mM HEPES-Na, 25 °C; pH 8.0 with 300 mM NaCl (Methods; Figure 5 legend says pH 7.0); binds across esterase active site
T4 construct: gene celE; C-terminal CE2 esterase module only, residues 482-814 of the full-length enzyme, C-terminal His6 tag, pET22b, E. coli BL21
Source text: as §1

CtCE2 [6] = biological target: T5, CtCE2 (Acetivibrio thermocellus, UniProt P10477, Y683A); test: isothermal titration calorimetry; format: binding; settings: 50 mM HEPES-Na, 25 °C; pH 8.0 with 300 mM NaCl (Methods; Figure 5 legend says pH 7.0); binds across esterase active site
T5 construct: gene celE; C-terminal CE2 esterase module only, residues 482-814 of the full-length enzyme, C-terminal His6 tag, pET22b, E. coli BL21
Source text: as §1

purified protein [7] = substrate: CC(=O)Oc1ccc([N+](=O)[O-])cc1; test: purified protein; format: biochemical, Cellvibrio japonicus; settings: 50 mM sodium phosphate pH 7.0, 1 mg/ml BSA
purified protein [8] = substrate: CC(=O)Oc1ccc([N+](=O)[O-])cc1; test: purified protein; format: biochemical, Acetivibrio thermocellus; settings: 50 mM sodium phosphate pH 7.0, 1 mg/ml BSA

T3 sequence (P10477 482-814 S612A): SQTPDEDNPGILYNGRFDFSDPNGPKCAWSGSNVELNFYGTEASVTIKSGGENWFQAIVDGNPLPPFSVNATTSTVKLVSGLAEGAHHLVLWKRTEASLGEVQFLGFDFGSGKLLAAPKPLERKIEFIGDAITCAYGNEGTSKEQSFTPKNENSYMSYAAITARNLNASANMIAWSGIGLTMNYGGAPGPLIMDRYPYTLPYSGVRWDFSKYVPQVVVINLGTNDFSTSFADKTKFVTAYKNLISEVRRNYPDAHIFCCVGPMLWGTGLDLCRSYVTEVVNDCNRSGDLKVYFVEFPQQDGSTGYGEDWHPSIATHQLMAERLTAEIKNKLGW
T4 sequence (P10477 482-814 W746A): as the sequence (P10477 482-814 S612A) above, with A131S, W265A counted along it
T2 sequence (P10477 482-814 H791A): as the sequence (P10477 482-814 S612A) above, with A131S, H310A counted along it
T5 sequence (P10477 482-814 Y683A): as the sequence (P10477 482-814 S612A) above, with A131S, Y202A counted along it

Row | Molecule | Kd (CtCE2 [1]) | Km (purified protein [8]) | kcat (purified protein [8]) | other results
1 | OC[C@H]1O[C@@H](O[C@H]2[C@H](O)[C@@H](O)[C@H](O[C@H]3[C@H](O)[C@@H](O)[C@H](O[C@H]4[C@H](O)[C@@H](O)C(O)O[C@@H]4CO)O[C@@H]3CO)O[C@@H]2CO)[C@H](O)[C@@H](O)[C@@H]1O (stereo partly shown) [cellotetraose] | 333 µM |  |  | 
2 | OC[C@H]1O[C@@H](O[C@H]2[C@H](O)[C@@H](O)[C@H](O[C@H]3[C@H](O)[C@@H](O)[C@H](O[C@H]4[C@H](O)[C@@H](O)[C@H](O[C@H]5[C@H](O)[C@@H](O)[C@H](O[C@H]6[C@H](O)[C@@H](O)C(O)O[C@@H]6CO)O[C@@H]5CO)O[C@@H]4CO)O[C@@H]3CO)O[C@@H]2CO)[C@H](O)[C@@H](O)[C@@H]1O (stereo partly shown) [cellohexaose] | 33 µM |  |  | Ki (CtCE2 [2]): 3.1 µM; Kd (CtCE2 [3]): 667 µM; Kd (CtCE2 [4]): 4.1 µM; Kd (CtCE2 [5]): > 1000 µM; Kd (CtCE2 [6]): 37 µM
3 | OC[C@H]1O[C@@H](O[C@H]2[C@H](O)[C@@H](O)[C@H](O[C@H]3[C@H](O)[C@@H](O)[C@H](O[C@H]4[C@H](O)[C@@H](O)[C@H](O[C@H]5[C@H](O)[C@@H](O)C(O)O[C@@H]5CO)O[C@@H]4CO)O[C@@H]3CO)O[C@@H]2CO)[C@H](O)[C@@H](O)[C@@H]1O (stereo partly shown) [cellopentaose] | 71 µM |  |  | 
4 | OC[C@H]1O[C@@H](O[C@H]2[C@H](O)[C@@H](O)[C@H](O[C@H]3[C@H](O)[C@@H](O)C(O)O[C@@H]3CO)O[C@@H]2CO)[C@H](O)[C@@H](O)[C@@H]1O (stereo partly shown) [cellotriose] | > 1000 µM |  |  | 
5 | B1 |  |  |  | Km (purified protein [7]): 339 µM; kcat (purified protein [7]): 7,717 min-1
6 | B2 |  | 75 µM | 2,512 min-1 | 
7 | B3 |  | 186 µM | 2,976 min-1 | 
8 | B4 |  | 165 µM | 7,032 min-1 | 
9 | B5 |  |  |  | Km (purified protein [7]): 262 µM; kcat (purified protein [7]): 49,820 min-1
